In article PMC7460845, “A Fungal Ascorbate Oxidase with Unexpected Laccase Activity” (International Journal of Molecular Sciences, 2020) one finds Km data, which are given here for one protein.

Substrate in the data set “purified protein”: O=C1O[C@H]([C@@H](O)CO)C(O)=C1O
Put plainly: purified protein. It counts as biochemical, Aspergillus flavus. As to conditions: pH 5.0, 30 °C, 0.05 to 1 mM substrate, oxygen as co-substrate.

Substrate in data set [1]: CCn1c(=NN=c2sc3cc(S(=O)(=O)O)ccc3n2CC)sc2cc(S(=O)(=O)O)ccc21
The experiment in a line: spectrophotometric ABTS oxidation, plate reader, Lineweaver-Burk. It counts as biochemical, Aspergillus flavus. As to conditions: 0.1 M citrate buffer pH 3.4, 25 °C, 0.5 to 20 mM substrate, oxygen as co-substrate.

B1: Af_AO1 (Aspergillus flavus NRRL3357) (protein)
chain: HLVLHDDSFQPDHILRVTAQDVNQACMDRYSVLINGSLPGPQLNIQEGKVNWIRVYNDMEDLNVTMHWHGLSAFTAPFSDGTPMASQWPIPPGHFFDYEVRPEVGYAGTYFYHSHVGFQALTAWGALIVESAQPSPYQYDEERIIALSDFFTKTDEEIENGLTSTNFTWSGETSAVLVNGQGRLATNATGSCKLAAISVEPGKTYRLRFIGATALSFVSISLESHDVLEIIEADGHYTKPVNTSYLQISSGQRYSVLLKAKTEAELQQAKSRQFYFQLTTMGRPTVLTTFAVLEYPSPTTTDLITVPVTPPLPVANITYGWLDYTLEPYYPDLDFPTVEEVTRRIIINVHQNISDRTVWLQNGYDWVETFPKSPYLVDIYAGTLDLDASYKRAIASGYAFDNQTRLFPAKMGEVLEIVWQNQGAVSNGGVENHPFHAHGRHFYDIGGGDGLYNLTENEARLKGTHPVIRDTTMLYAYRKTTTALEPSGWRAWRIRVTAAGVWMVHCHVLQHMLMGMQTAFAFGDQTAIKAQSGTPAEGYLTYGGSAYGNVTHFPPVKHFFN
notes: natural signal peptide removed, no tag; codon-optimized gene in pPicZalphaB, secreted from Pichia pastoris KM71H; model target 561 residues
Regarding B1, the Km (usually the concentration of substrate that gives half-maximal velocity) was 160 ± 30 µM in “purified protein” and 1890 ± 120 µM in data set [1].
